According to paper PMC12711577:

What was measured:
[1] = biological target: DDM1 N terminus (1–148) with K102E and K120E (Arabidopsis thaliana) (UniProt Q9XFH4); assay: pull-down; in vitro pulldown of recombinant CDCA7α N terminus (1-136) with DDM1 N terminus (1-148); blots quantified, averages of nine (CDCA7α mutations) and five (DDM1 mutations) replicates
[2] = biological target: DDM1 N terminus (1–148) (Arabidopsis thaliana) (UniProt Q9XFH4); assay: as above
[3] = biological target: T1, CDCA7α N terminus (1–136); assay: pull-down (GST pulldown, anti-His western blot, quantified); details: chain shown with the change; n = 5 pulldown replicates; parent: est. 98; read off a plot
T1 chain: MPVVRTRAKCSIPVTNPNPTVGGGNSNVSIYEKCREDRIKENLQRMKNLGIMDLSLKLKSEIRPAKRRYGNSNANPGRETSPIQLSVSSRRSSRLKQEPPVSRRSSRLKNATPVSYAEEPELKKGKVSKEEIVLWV

## CDCA7α N terminus (1–136) (domain or fragment)
[1]
  loss of binding relative to the WT: 50 % loss

## CDCA7α N terminus (1–136) with E32K, E41K, E61K and I62A (domain or fragment)
[2]
  binding relative to the WT: 50 % of the WT

B1: DDM1 N terminus (1–148), Q9XFH4 K102E; K120E; F116A; I124A (protein)
chain: MVSLRSRKVIPASEMVSDGKTEKDASGDSPTSVLNEEENCEEKSVTVVEEEILLAKNGDSSLISEAMAQEEEQLLKLREDEEKANNAGSAVAPNLNETQFTELDELLTQTQLYSEALLEEMEDATINGIESESQKAEPEKTGRGRKRK
[3]
  response: 4
